Laboratory results from article PMC10034259.

Molecular target: cys-protein G conjugated to a peptide nucleic acid strand (PG-PNA)

With “RBD, Fc (SARS-CoV-2 spike receptor binding domain with Fc) (from UniProt P0DTC2) (Fc fusion)” the stoichiometry N was 2.82 RBD:PG.
